Laboratory results reported in patent publication US20100260668A1 (published 2010).

B1: DVD483 (DLL4/VEGF DVD-Ig) (bispecific antibody, human IgG1)
VH: EVQLVESGGGLVQPGGSLRLSCAASGFTFTDNWISWVRQAPGKGLEWVGYISPNSGFTYYADSVKGRFTISADTSKNTAYLQMNSLRAEDTAVYYCARDNFGGYFDYWGQGTLVTVSSASTKGPEVQLVESGGGLVQPGGSLRLSCAASGFTISDYWIHWVRQAPGKGLEWVAGITPAGGYTYYADSVKGRFTISADTSKNTAYLQMNSLRAEDTAVYYCARFVFFLPYAMDYWGQGTLVTVSS
VL: DIQMTQSPSSLSASVGDRVTITCRASQDVSTAVAWYQQKPGKAPKLLIYSASFLYSGVPSRFSGSGSGTDFTLTISSLQPEDFATTYYCQQSYTGTVTFGQGTKVEIKRTVAAPSVFIFPPDIQMTQSPSSLSASVGDRVTITCRASQDVSTAVAWYQQKPGKAPKLLIYSASFLYSGVPSRFSGSGSGTDFTLTISSLQPEDFATYYCQQSYTTPPTFGQGTKVEIKR
notes: HC linker short, LC linker long; also called DVD483H; DVD483L
B2: DVD461 (DLL4/VEGF DVD-Ig) (bispecific antibody, human IgG1)
VH: QVQLVQSGAEVKKPGASVKISCKASGYSFTAYYIHWVKQAPGQGLEWIGYISSYNGATNYNQKFKGRVTFTTDTSTSTAYMELRSLRSDDTAVYYCARDYDYDVGMDYWGQGTLVTVSSASTKGPEVQLVESGGGLVQPGGSLRLSCAASGFTISDYWIHWVRQAPGKGLEWVAGITPAGGYTYYADSVKGRFTISADTSKNTAYLQMNSLRAEDTAVYYCARFVFFLPYAMDYWGQGTLVTVSS
VL: DIVMTQSPDSLAVSLGERATISCRASESVDNYGISFMKWFQQKPGQPPKLLIYAASNQGSGVPDRFSGSGSGTDFTLTISSLQAEDVAVYYCQQSKEVPWTFGGGTKVEIKRTVAAPSVFIFPPDIQMTQSPSSLSASVGDRVTITCRASQDVSTAVAWYQQKPGKAPKLLIYSASFLYSGVPSRFSGSGSGTDFTLTISSLQPEDFATYYCQQSYTTPPTFGQGTKVEIKR
notes: HC linker short, LC linker long; also called DVD461H; DVD461L
B3: DVD531 (DLL4/VEGF DVD-Ig) (bispecific antibody, human IgG1)
VH: EVQLQQSGPELEKPGASVKISCKASGYSFTGYNMNWVKQSNGKSLEWIGNIDPYFGGTNYNQKFKGKATLTVDKSSSTAYMQLKSLTSEDSAVYYCARNYDYDGGCFDYWGQGTTLTVSSASTKGPEVQLVESGGGLVQPGGSLRLSCAASGFTISDYWIHWVRQAPGKGLEWVAGITPAGGYTYYADSVKGRFTISADTSKNTAYLQMNSLRAEDTAVYYCARFVFFLPYAMDYWGQGTLVTVSS
VL: QAVVTQESALTTSPGETVTLTCRSSTGAVTTSNYANWVQEKPDHLFTGLIGGTNNRAPGVPARFSGSLIGDKAALTITGAQTEDEAIYFCALWYSNHWVFGGGTKLTVLGQPKAAPSVTLFPPDIQMTQSPSSLSASVGDRVTITCRASQDVSTAVAWYQQKPGKAPKLLIYSASFLYSGVPSRFSGSGSGTDFTLTISSLQPEDFATYYCQQSYTTPPTFGQGTKVEIKR
notes: HC linker short, LC linker long; also called DVD531H; DVD531L
B4: DVD507 (DLL4/VEGF DVD-Ig) (bispecific antibody, human IgG1)
VH: EVQLQQSGPELVKPGASVKMSCKASGYTFTSYVINWVKQKPGQGLEWIGLINPYNDGTKYNEKFKVKATLTSDKSSSTAYMELSSLTSEDSAVYYCASYYYGSRYYFDYWGQGTTLTVSSASTKGPEVQLVESGGGLVQPGGSLRLSCAASGFTISDYWIHWVRQAPGKGLEWVAGITPAGGYTYYADSVKGRFTISADTSKNTAYLQMNSLRAEDTAVYYCARFVFFLPYAMDYWGQGTLVTVSS
VL: DIQMTQSSSYLSVSLGGRVTITCKASDHINNWLAWYQQKPGNAPRLLISGATSLETGVPSRFSGSGSGKDYTLSITSLQTEDVATYYCQQYWSIPLTFGAGTKLELKRTVAAPSVFIFPPDIQMTQSPSSLSASVGDRVTITCRASQDVSTAVAWYQQKPGKAPKLLIYSASFLYSGVPSRFSGSGSGTDFTLTISSLQPEDFATYYCQQSYTTPPTFGQGTKVEIKR
notes: HC linker short, LC linker long; also called DVD507H; DVD507L
B5: DVD455 (DLL4/VEGF DVD-Ig) (bispecific antibody, human IgG1)
VH: QVQLVQSGAEVKKPGASVKISCKASGYSFTAYYIHWVKQAPGQGLEWIGYISSYNGATNYNQKFKGRVTFTTDTSTSTAYMELRSLRSDDTAVYYCARDYDYDVGMDYWGQGTLVTVSSASTKGPSVFPLAPEVQLVESGGGLVQPGGSLRLSCAASGFTISDYWIHWVRQAPGKGLEWVAGITPAGGYTYYADSVKGRFTISADTSKNTAYLQMNSLRAEDTAVYYCARFVFFLPYAMDYWGQGTLVTVSS
VL: DIVMTQSPDSLAVSLGERATISCRASESVDNYGISFMKWFQQKPGQPPKLLIYAASNQGSGVPDRFSGSGSGTDFTLTISSLQAEDVAVYYCQQSKEVPWTFGGGTKVEIKRTVAAPDIQMTQSPSSLSASVGDRVTITCRASQDVSTAVAWYQQKPGKAPKLLIYSASFLYSGVPSRFSGSGSGTDFTLTISSLQPEDFATYYCQQSYTTPPTFGQGTKVEIKR
notes: HC linker long, LC linker short; also called DVD455H; DVD455L
B6: DVD525 (DLL4/VEGF DVD-Ig) (bispecific antibody, human IgG1)
VH: EVQLQQSGPELEKPGASVKISCKASGYSFTGYNMNWVKQSNGKSLEWIGNIDPYFGGTNYNQKFKGKATLTVDKSSSTAYMQLKSLTSEDSAVYYCARNYDYDGGCFDYWGQGTTLTVSSASTKGPSVFPLAPEVQLVESGGGLVQPGGSLRLSCAASGFTISDYWIHWVRQAPGKGLEWVAGITPAGGYTYYADSVKGRFTISADTSKNTAYLQMNSLRAEDTAVYYCARFVFFLPYAMDYWGQGTLVTVSS
VL: QAVVTQESALTTSPGETVTLTCRSSTGAVTTSNYANWVQEKPDHLFTGLIGGTNNRAPGVPARFSGSLIGDKAALTITGAQTEDEAIYFCALWYSNHWVFGGGTKLTVLGQPKAAPDIQMTQSPSSLSASVGDRVTITCRASQDVSTAVAWYQQKPGKAPKLLIYSASFLYSGVPSRFSGSGSGTDFTLTISSLQPEDFATYYCQQSYTTPPTFGQGTKVEIKR
notes: HC linker long, LC linker short; also called DVD525H; DVD525L
B7: DVD501 (DLL4/VEGF DVD-Ig) (bispecific antibody, human IgG1)
VH: EVQLQQSGPELVKPGASVKMSCKASGYTFTSYVINWVKQKPGQGLEWIGLINPYNDGTKYNEKFKVKATLTSDKSSSTAYMELSSLTSEDSAVYYCASYYYGSRYYFDYWGQGTTLTVSSASTKGPSVFPLAPEVQLVESGGGLVQPGGSLRLSCAASGFTISDYWIHWVRQAPGKGLEWVAGITPAGGYTYYADSVKGRFTISADTSKNTAYLQMNSLRAEDTAVYYCARFVFFLPYAMDYWGQGTLVTVSS
VL: DIQMTQSSSYLSVSLGGRVTITCKASDHINNWLAWYQQKPGNAPRLLISGATSLETGVPSRFSGSGSGKDYTLSITSLQTEDVATYYCQQYWSIPLTFGAGTKLELKRTVAAPDIQMTQSPSSLSASVGDRVTITCRASQDVSTAVAWYQQKPGKAPKLLIYSASFLYSGVPSRFSGSGSGTDFTLTISSLQPEDFATYYCQQSYTTPPTFGQGTKVEIKR
notes: HC linker long, LC linker short; also called DVD501H; DVD501L
B8: DVD478 (VEGF/DLL4 DVD-Ig) (bispecific antibody, human IgG1)
VH: EVQLVESGGGLVQPGGSLRLSCAASGFTISDYWIHWVRQAPGKGLEWVAGITPAGGYTYYADSVKGRFTISADTSKNTAYLQMNSLRAEDTAVYYCARFVFFLPYAMDYWGQGTLVTVSSASTKGPSVFPLAPEVQLVESGGGLVQPGGSLRLSCAASGFTFTDNWISWVRQAPGKGLEWVGYISPNSGFTYYADSVKGRFTISADTSKNTAYLQMNSLRAEDTAVYYCARDNFGGYFDYWGQGTLVTVSS
VL: DIQMTQSPSSLSASVGDRVTITCRASQDVSTAVAWYQQKPGKAPKLLIYSASFLYSGVPSRFSGSGSGTDFTLTISSLQPEDFATYYCQQSYTTPPTFGQGTKVEIKRTVAAPDIQMTQSPSSLSASVGDRVTITCRASQDVSTAVAWYQQKPGKAPKLLIYSASFLYSGVPSRFSGSGSGTDFTLTISSLQPEDFATTYYCQQSYTGTVTFGQGTKVEIKR
notes: HC linker long, LC linker short; also called DVD478H; DVD478L
B9: DVD456 (VEGF/DLL4 DVD-Ig) (bispecific antibody, human IgG1)
VH: EVQLVESGGGLVQPGGSLRLSCAASGFTISDYWIHWVRQAPGKGLEWVAGITPAGGYTYYADSVKGRFTISADTSKNTAYLQMNSLRAEDTAVYYCARFVFFLPYAMDYWGQGTLVTVSSASTKGPSVFPLAPQVQLVQSGAEVKKPGASVKISCKASGYSFTAYYIHWVKQAPGQGLEWIGYISSYNGATNYNQKFKGRVTFTTDTSTSTAYMELRSLRSDDTAVYYCARDYDYDVGMDYWGQGTLVTVSS
VL: DIQMTQSPSSLSASVGDRVTITCRASQDVSTAVAWYQQKPGKAPKLLIYSASFLYSGVPSRFSGSGSGTDFTLTISSLQPEDFATYYCQQSYTTPPTFGQGTKVEIKRTVAAPDIVMTQSPDSLAVSLGERATISCRASESVDNYGISFMKWFQQKPGQPPKLLIYAASNQGSGVPDRFSGSGSGTDFTLTISSLQAEDVAVYYCQQSKEVPWTFGGGTKVEIKR
notes: HC linker long, LC linker short; also called DVD456H; DVD456L
B10: DVD526 (VEGF/DLL4 DVD-Ig) (bispecific antibody, human IgG1)
VH: EVQLVESGGGLVQPGGSLRLSCAASGFTISDYWIHWVRQAPGKGLEWVAGITPAGGYTYYADSVKGRFTISADTSKNTAYLQMNSLRAEDTAVYYCARFVFFLPYAMDYWGQGTLVTVSSASTKGPSVFPLAPEVQLQQSGPELEKPGASVKISCKASGYSFTGYNMNWVKQSNGKSLEWIGNIDPYFGGTNYNQKFKGKATLTVDKSSSTAYMQLKSLTSEDSAVYYCARNYDYDGGCFDYWGQGTTLTVSS
VL: DIQMTQSPSSLSASVGDRVTITCRASQDVSTAVAWYQQKPGKAPKLLIYSASFLYSGVPSRFSGSGSGTDFTLTISSLQPEDFATYYCQQSYTTPPTFGQGTKVEIKRTVAAPQAVVTQESALTTSPGETVTLTCRSSTGAVTTSNYANWVQEKPDHLFTGLIGGTNNRAPGVPARFSGSLIGDKAALTITGAQTEDEAIYFCALWYSNHWVFGGGTKLTVLG
notes: HC linker long, LC linker short; also called DVD526H; DVD526L
B11: DVD502 (VEGF/DLL4 DVD-Ig) (bispecific antibody, human IgG1)
VH: EVQLVESGGGLVQPGGSLRLSCAASGFTISDYWIHWVRQAPGKGLEWVAGITPAGGYTYYADSVKGRFTISADTSKNTAYLQMNSLRAEDTAVYYCARFVFFLPYAMDYWGQGTLVTVSSASTKGPSVFPLAPEVQLQQSGPELVKPGASVKMSCKASGYTFTSYVINWVKQKPGQGLEWIGLINPYNDGTKYNEKFKVKATLTSDKSSSTAYMELSSLTSEDSAVYYCASYYYGSRYYFDYWGQGTTLTVSS
VL: DIQMTQSPSSLSASVGDRVTITCRASQDVSTAVAWYQQKPGKAPKLLIYSASFLYSGVPSRFSGSGSGTDFTLTISSLQPEDFATYYCQQSYTTPPTFGQGTKVEIKRTVAAPDIQMTQSSSYLSVSLGGRVTITCKASDHINNWLAWYQQKPGNAPRLLISGATSLETGVPSRFSGSGSGKDYTLSITSLQTEDVATYYCQQYWSIPLTFGAGTKLELKR
notes: HC linker long, LC linker short; also called DVD502H; DVD502L

Molecular target: T1, DLL4 (DLL4 ECD/His tag, R&D Systems 1506-D4-050) (UniProt Q9NR61 27-529)
T1 construct: extracellular domain; not shown: His tag
Test: Direct bind ELISA on DLL4; DLL4 domain N-term., HC short, LC long

Q: For B1, which EC50 is on record?
A: The EC50 was 0.63 nM.

Q: For B2, which EC50 is on record?
A: Its EC50 is 0.52 nM.

Q: Which EC50 does the source give for B3 here?
A: The EC50 was 0.57 nM.

Q: How did the EC50 turn out when B4 was run?
A: The EC50 was 0.71 nM.

Molecular target: T1, DLL4 (DLL4 ECD/His tag, R&D Systems …)
Test: Direct bind ELISA on DLL4; DLL4 domain N-term., HC long, LC short

Q: For B5, which EC50 is on record?
A: The EC50 was 0.24 nM.

Q: B6 was tested. Which EC50 did it give?
A: Its EC50 is 1 nM.

Q: With B7 as the binder, how does the EC50 read?
A: Its EC50 is 0.18 nM.

Molecular target: T1, DLL4 (DLL4 ECD/His tag, R&D Systems …)
Test: Direct bind ELISA on DLL4; DLL4 domain C-term., HC long, LC short

Q: B8 was tested. Which EC50 did it give?
A: The EC50 was 2.53 nM.

Q: With B9 as the binder, how does the EC50 read?
A: The EC50 was 2.48 nM.

Q: Which EC50 does the source give for B10 here?
A: The EC50 was 1.57 nM.

Q: For B11, which EC50 is on record?
A: Its EC50 is 3.17 nM.
